± gives the standard deviation of the averaged measurements.
What follows are sequences tested on Saccharomyces cerevisiae (assay: protein stability index of tFT-peptide fusion (C-terminal peptide) (PSI (0-1 scale)); higher = more stable (slower turnover)). Conditions: genetic background: wild type; temperature: 30 C.
Protocol: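 Multiplexed protein stability (MPS) profiling in S. cerevisiae. Random 12-aa peptides (tFT-X12 library) are fused to the C-terminus of a sfGFP-mCherry tandem fluorescent timer, after mCherry and a GGGS linker. Cells are FACS-sorted into 8 mCherry/sfGFP bins and deep-sequenced. The protein stability index (PSI) is the read-weighted bin average, scaled from 0 (unstable) to 1 (stable). Only peptides with >10 reads are reported; cells were grown at 30 °C in SC-His with glucose.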
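Further: PSI is a weighted mean of sequencing reads over stability bins, variants kept only with over 10 reads, mCherry proximal and sfGFP distal, peptide attached via GGGS linker.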

Sequence | protein stability index
KEREGGSMNGGG | 0.692 ± 0.064
KEWLSRDIEDAS | 0.665 ± 0.027
KFRFPVDLIFET | 0.73 ± 0.015
KGDMSCWPSRPI | 0.7137 ± 0.00075
KGGWGMRGVRGG | 0.672 ± 0.0046
KGKFTRGGMAGT | 0.668 ± 0.049
KGKKRKNEKNKR | 0.691 ± 0.0089
KGLLSITLRNLD | 0.63 ± 0.049
KGMVEESIIKRA | 0.62084 ± 0.00038
KGRKKKKRKEQE | 0.693 ± 0.016
KGRRVSTGRRRR | 0.712 ± 0.004
KGRWEVRGEGRG | 0.64 ± 0.03
KGSWCSPRGELR | 0.6552 ± 0.0059
KHKGRSKETHDV | 0.616 ± 0.09
KHLIHSRLGICG | 0.6634 ± 0.0059
KHRKSKEIRTAR | 0.6844 ± 0.0065
KIGEVNKKQSII | 0.743 ± 0.064
KIIKKKKKNKEH | 0.596 ± 0.055
KIIRKNILRNEY | 0.658 ± 0.018
KIKNHQRQIMNT | 0.494 ± 0.092
KIKTTKKIKKKK | 0.681 ± 0.032
KINKNMDYKYQK | 0.673 ± 0.095
KINPQKTEWARR | 0.689 ± 0.024
KKDIYRVGLKVR | 0.618 ± 0.011
KKDMCRSSFPDC | 0.686 ± 0.007

Sequence | protein stability index
KKEIGGSNWNKK | 0.632 ± 0.09
KKEKKKTKANKT | 0.679 ± 0.031
KKEQPKEKQGNK | 0.732 ± 0.053
KKETKSNCRIKN | 0.708 ± 0.017
KKETRKKETKKE | 0.685 ± 0.041
KKETRRTNPEHK | 0.765 ± 0.11
KKGGKEEPSRRK | 0.741 ± 0.084
KKIKKKQKKKIQ | 0.664 ± 0.071
KKKELLTKKQKD | 0.637 ± 0.021
KKKENKNEKKKE | 0.692 ± 0.06
KKKGWAKEKLKR | 0.75 ± 0.051
KKKKIKKNKKQL | 0.684 ± 0.01
KKKKKIKNKKKK | 0.741 ± 0.032
KKKKKKEKGDST | 0.716 ± 0.076
KKKKKKKKKKQN | 0.62 ± 0.039
KKKKKKKKKNEK | 0.755 ± 0.024
KKKKKKKNKKKT | 0.7142 ± 0.00095
KKKKKKNSEKMK | 0.704 ± 0.062
KKKKKKQKHKKI | 0.718 ± 0.033
KKKKKRKKEEKH | 0.721 ± 0.032
KKKKKTQKKTKQ | 0.6818 ± 0.0029
KKKKNKNEKPKK | 0.746 ± 0.074
KKKKNNKKKKIE | 0.702 ± 0.015
KKKKQKKKYKKT | 0.695 ± 0.095
KKKNEAKKKKTK | 0.744 ± 0.058

Sequence | protein stability index
KKKQTKGNQKPK | 0.7623 ± 0.0011
KKKRKRREKKQN | 0.681 ± 0.016
KKKTKQTKVNKK | 0.64 ± 0.072
KKNCRKNQKEET | 0.663 ± 0.067
KKNKKQDDKKRQ | 0.645 ± 0.039
KKNNTKKNRKRK | 0.7 ± 0.051
KKQAVRVEIIGR | 0.655 ± 0.018
KKQKKKKTQTNK | 0.68224 ± 0.00034
KKQKSKSAREAS | 0.658 ± 0.024
KKQQKTKEKTES | 0.76 ± 0.031
KKRKEIKNREEK | 0.739 ± 0.035
KKRKEKRKKNSI | 0.647 ± 0.016
KKRKGKGRDIRG | 0.7025 ± 0.0016
KKRREKKYQHKI | 0.713 ± 0.039
KKRRTIKSQSKV | 0.6825 ± 0.0049
KKSKEKGTRRQR | 0.651 ± 0.073
KKSKKKSKNIRK | 0.694 ± 0.028
KKSNEKERATQQ | 0.708 ± 0.046
KKSVDKNKEIKL | 0.681 ± 0.12
KKTRGNNGKTQR | 0.631 ± 0.0076
KKTSKTERDQKE | 0.639 ± 0.015
KKTTKKKRKKNK | 0.657 ± 0.018
KKTVKNNQNNTD | 0.654 ± 0.041
KKVKNQGLILRW | 0.673 ± 0.035
KKVTEKSKNEKR | 0.692 ± 0.053

Sequence | protein stability index
KLEEKRKEMERK | 0.7093 ± 0.007
KLEERIKRTEDK | 0.7219 ± 0.0018
KLKIKREKKKRK | 0.668 ± 0.019
KLKIMEDQGKKK | 0.706 ± 0.12
KLPILDKKAVAQ | 0.696 ± 0.03
KLPPATPNSRPP | 0.714 ± 0.2
KLPRPRHSDCPS | 0.6505 ± 0.00069
KLQPVTTTQTIG | 0.6713 ± 0.004
KNANLRLPWKAH | 0.667 ± 0.029
KNAQQYQKKQKQ | 0.797 ± 0.056
KNEIRLKEDIRC | 0.718 ± 0.017
KNIKKKNKNDKK | 0.6936 ± 0.0063
KNKKKNSRKKQQ | 0.702 ± 0.0083
KNMKTEDLLIVN | 0.727 ± 0.022
KNSWVLPPSPRS | 0.68 ± 0.04
KNVHKDNRSVKK | 0.677 ± 0.14
KPGGQRTRTRRR | 0.622 ± 0.025
KPSAKRRNLFKL | 0.699 ± 0.15
KQAPTLFLSFIL | 0.5885 ± 0.0028
KQDTRRHIHTTK | 0.735 ± 0.092
KQEDIKNKKKKE | 0.679 ± 0.032
KQKKIGNKITNK | 0.667 ± 0.008
KQKKKKKEYKKK | 0.676 ± 0.027
KQKKNKNNHRKK | 0.761 ± 0.024
KQKQNKIKITTQ | 0.656 ± 0.0077

Sequence | protein stability index
KQKRKENIHIIK | 0.776 ± 0.033
KQQRKNEKTNTL | 0.658 ± 0.16
KQSIKKKKIKKT | 0.634 ± 0.017
KRAREKDGKSAD | 0.676 ± 0.032
KRARLWQKRVEK | 0.754 ± 0.14
KREMESTTHSKT | 0.5985 ± 0.0011
KRFDKEWEIWRS | 0.733 ± 0.023
KRGFSLKEARGF | 0.642 ± 0.008
KRGKNKKYKNRF | 0.638 ± 0.074
KRGRAIVVQLWV | 0.578 ± 0.021
KRKDGVTAGVEG | 0.712 ± 0.017
KRKETIRKKNQT | 0.734 ± 0.05
KRKHHKREKKKK | 0.677 ± 0.042
KRKKEKRKEERK | 0.779 ± 0.011
KRKKIQNRGKKK | 0.718 ± 0.0086
KRRAERKKRSKG | 0.6731 ± 0.006
KRRRYKEKPRKR | 0.665 ± 0.12
KRWKSKYELGST | 0.68 ± 0.063
KRYRKGGRPMRA | 0.66 ± 0.06
KSARSYSMEGEI | 0.673 ± 0.016
KSFQLEHKYTRN | 0.737 ± 0.029
KSGGWLWGGGGG | 0.663 ± 0.054
KSGHYVVSYSGV | 0.678 ± 0.0045
KSPDSLDIRFHT | 0.714 ± 0.13
KSQATELKKVNG | 0.65 ± 0.037

Sequence | protein stability index
KSRGYSKQQIRG | 0.72 ± 0.015
KSSNYSTEDVKI | 0.697 ± 0.014
KSSSVRQGWEGC | 0.728 ± 0.081
KTGATAIKKINK | 0.695 ± 0.039
KTKEYKYEKRKT | 0.596 ± 0.027
KTKKIMPEQIKK | 0.616 ± 0.017
KTKKKKEQTKKK | 0.808 ± 0.15
KTKKKYENRKKK | 0.684 ± 0.0094
KTKKNKQKSKKK | 0.705 ± 0.034
KTKKQEKNNKSK | 0.685 ± 0.029
KTLRRGYDWLQG | 0.681 ± 0.038
KTLVRSFSIIEG | 0.657 ± 0.026
KTRHRQKDVTTH | 0.713 ± 0.055
KTRKNNSKKNTK | 0.688 ± 0.019
KTSYDQTLEMGL | 0.62 ± 0.04
KTTRTGRHTAPN | 0.676 ± 0.028
KTTVENEQRKEK | 0.698 ± 0.079
KVDRDRTGIHWS | 0.671 ± 0.061
KVHQHPFLHALS | 0.695 ± 0.012
KVIKEQNKKIDR | 0.641 ± 0.026
KVNWVKAAKKNA | 0.626 ± 0.019
KVSTWKISRISG | 0.55 ± 0.026
KWEGKKINKKRE | 0.699 ± 0.077
KWGVWLWVGGGG | 0.763 ± 0.056
KYEKILLTVAPE | 0.672 ± 0.019

Sequence | protein stability index
KYLPSVVYIYRL | 0.531 ± 0.023
KYMENQLSYDAD | 0.646 ± 0.051
LACGWCVAVYRG | 0.644 ± 0.049
LAFFAPCLLPPL | 0.557 ± 0.048
LAFFPPPLPPSS | 0.698 ± 0.064
LAGGGARWGVVR | 0.659 ± 0.033
LAGISSNRHLRR | 0.753 ± 0.067
LAGRSVVLLWMG | 0.602 ± 0.021
LALLGPCPPPIH | 0.741 ± 0.083
LAPLTLLSPLPR | 0.677 ± 0.034
LAPNPGVLFCGI | 0.656 ± 0.044
LAPPPRPPLAPP | 0.637 ± 0.03
LAPRPPAPTPTL | 0.603 ± 0.053
LAPSWVGYVSGH | 0.7 ± 0.069
LARLTRHSKLGL | 0.712 ± 0.066
LASVYLLLRFSE | 0.5266 ± 0.0012
LAVVGGVEKKYH | 0.676 ± 0.055
LAVVSTRCRLEL | 0.694 ± 0.062
LCDACLSLVFLW | 0.629 ± 0.031
LCGSSVSHLVLP | 0.7125 ± 0.0054
LCPSFAIALSSD | 0.692 ± 0.013
LCRCVFFGLWGV | 0.621 ± 0.031
LCSLSLCSYSIF | 0.6 ± 0.0053
LCTYVMFACFFF | 0.641 ± 0.1
LCYTDMIRGCVF | 0.65 ± 0.021

Sequence | protein stability index
LDELTRRAEGCG | 0.596 ± 0.008
LDGGYGRHGVGD | 0.6765 ± 0.00099
LDIGVADAQRML | 0.701 ± 0.14
LEGTGDRFALCG | 0.659 ± 0.023
LEIRKKGNKIRE | 0.6 ± 0.041
LEKYIKNYINKR | 0.615 ± 0.016
LERTTSNKYEER | 0.7234 ± 0.0061
LESARDICAFAD | 0.6754 ± 0.005
LESSAKSRTMVL | 0.721 ± 0.014
LEVFSGNQSVLH | 0.645 ± 0.094
LFAHSLRLSFAC | 0.7054 ± 0.0031
LFALLSGIDRCL | 0.634 ± 0.012
LFAPPACLPSPA | 0.64 ± 0.014
LFFGSNLFLLAL | 0.595 ± 0.043
LFFNLLLFFSFI | 0.488 ± 0.018
LFFSLSLVVPTG | 0.633 ± 0.095
LFGAVGGGVEVG | 0.668 ± 0.12
LFGVRFTLGYLF | 0.554 ± 0.016
LFLGSFSRSLWP | 0.755 ± 0.015
LFLLYPRLTLPL | 0.621 ± 0.023
LFLPLPGPLRSS | 0.79 ± 0.13

From the supplement of paper PMC10724198
